# T1: CD25 (R&D systems cat. #223-2A/CF) (UniProt P01589 22-213, limits assumed)
# T1 construct: Bought soluble protein
# T1 sequence (looked up): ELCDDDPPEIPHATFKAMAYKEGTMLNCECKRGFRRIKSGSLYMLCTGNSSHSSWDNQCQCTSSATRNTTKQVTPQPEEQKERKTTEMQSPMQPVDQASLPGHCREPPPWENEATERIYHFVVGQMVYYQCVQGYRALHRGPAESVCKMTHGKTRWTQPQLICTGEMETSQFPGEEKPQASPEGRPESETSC
# How the values were obtained:
# VEGF = VEGF (UniProt P15692-4 27-191, limits assumed); assay: Biacore (SPR); Fab injected over immobilized VEGF
# Description: For kinetic analysis of anti-VEGF antibodies, VEGF was coupled to an activated CM5 biosensor chip using standard NHS-EDC chemistry by injecting 200 nM VEGF at a flow rate of 2 μL/min for 10 min. […] Association rates (kₒₙ) and dissociation rates (koff) were calculated using a simple one-to-one Langmuir binding model (BIAcore Evaluation Software version 3.2). The equilibrium dissociation constant (Kd) was calculated as the ratio of koff/kₒₙ.
# TNFα [1] = target: T2, TNFα (UniProt P01375 77-233); assay: SPR (Biacore), TNFα on CM5 chip, Fab injected; mean of two runs ± SD
# T2 sequence (P01375 77-233 limits assumed): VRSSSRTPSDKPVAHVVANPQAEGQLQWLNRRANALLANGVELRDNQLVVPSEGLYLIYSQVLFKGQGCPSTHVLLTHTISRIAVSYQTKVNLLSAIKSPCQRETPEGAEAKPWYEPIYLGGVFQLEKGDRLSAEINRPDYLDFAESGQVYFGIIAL
# Description: (§1) For kinetic analysis of anti-TNFα antibodies, TNFα was coupled to an activated CM5 biosensor chip using standard NHS-EDC chemistry by injecting 200 nM TNFα at a flow rate of 2 μL/min for 10 min. […] For subsequent cycles, the chip was regenerated using pH4.0 acetate buffer. Association rates (kₒₙ) and dissociation rates (koff) were calculated using a simple one-to-one Langmuir binding model (BIAcore Evaluation Software version 3.2). The equilibrium dissociation constant (Kd) was calculated as the ratio of koff/kₒₙ.
# TNFα [2] = target: T2, TNFα; assay: SPR (Biacore), TNFα on CM5 chip, Fab injected
# Description: as §1
# TNFα [3] = target: T2, TNFα; assay: Biacore (SPR); Fab injected over immobilized TNFα
# Description: as §1
# [4] = target: T1, CD25 (R&D systems cat. #223-2A/CF); assay: Biacore (SPR); antibody captured on Protein A, CD25 injected
# Description: (§2) Binding was measured by injection of two-fold serial dilutions of CD25 (0 nM to 50 nM; R&D systems) in buffer at 25° C. with a flow rate of 25-30 μL/min for 2 min followed by a dissociation phase of 4-5 min. Association rates (kₒₙ) and dissociation rates (koff) were calculated using a simple one-to-one Langmuir binding model (BIAcore Evaluation Software version 3.2). The equilibrium dissociation constant (Kd) was calculated as the ratio of koff/kₒₙ).
# [5] = target: T1, CD25 (R&D systems cat. #223-2A/CF); assay: Biacore blocking assay; antibody injected over CD25 coupled to a CM5 chip, then 100 nM rh-IL2; blocked ligand IL-2
# Description: The chip was regenerated after each cycle by injection of glycine buffer @ pH 1.5 for 30 sec at 10 μL/min.
# [6] = target: T1, CD25 (R&D systems cat. #223-2A/CF); assay: SPR (Biacore)
# Description: as §2
# Chain of VEGF (P15692 other isoform, or with tags, fused parts or gaps limits assumed): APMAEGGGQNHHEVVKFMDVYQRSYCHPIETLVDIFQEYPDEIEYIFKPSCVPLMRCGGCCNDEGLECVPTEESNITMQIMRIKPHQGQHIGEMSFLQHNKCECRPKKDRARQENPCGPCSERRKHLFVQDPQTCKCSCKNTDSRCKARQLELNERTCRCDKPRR
Kd (TNFα [1]) [nM],koff (TNFα [1]) [s⁻¹],kon (TNFα [1]) [M⁻¹ s⁻¹],fold difference in affinity against the chimeric antibody anti-TNFα H0L0 (TNFα [2]) [fold],Binder,other results
1.9,0.00116,605000,,"Anti-TNFα H1L1 (Fab, V domains shown, Fab format, purified by Ni-NTA chromatography; also called framework optimized anti-TNFα H1L1) VH: EVQLVESGGGLVQPGGSLKLSCAASGFIFSNHWMNWVRQASGKGLEWVGEIRSKSINSATHYAESVKGRFTISRDDSKSIVYLQMNSLKTEDTAVYYCSRNYYGSTYDYWGQGTLVTVSS VL: DILLTQSPDFQSVTPKEKVTITCRASQFVGSSIHWYQQKPDQSPKLLIKYASESMSGIPSRFSGSGSGTDFTLTINSLEAEDAATYYCQQSHSWPFTFGSGTKLEIK",
3.1,0.00092,292000,≤ 3,"Anti-TNFα H1.103L1.33 (Fab, V domains shown, Fab format; It has thirteen more mutations than anti-TNFα H1L1; also called anti-TNF H1.103L1.33) VH: EVQLVESGGGLVQPGGSLKLSCAASGFIFSNHWMNWVRQASGKGLEWVGEIRSKANNYATHYAASVKGRFTISRDDSKNTAYLQMNSLKTEDTAVYYCSRNYYGSTYDYWGQGTLVTVSS VL: EIVLTQSPDFQSVTPKEKVTITCRASQFIGSSLHWYQQKPDQSPKLLIKYASESFSGVPSRFSGSGSGTDFTLTINSLEAEDAATYYCQQSHSWPFTFGSGTKLEIK",Fold affinity change relative to H0L0 (TNFα [3]): -1.3 fold

# Second part, the binder before the results:
Binder,Kd (TNFα [1]) [nM],koff (TNFα [1]) [s⁻¹],kon (TNFα [1]) [M⁻¹ s⁻¹],fold difference in affinity against the chimeric antibody anti-TNFα H0L0 (TNFα [2]) [fold],other results
"anti-VEGF H0L0 (Fab, V domains shown, also called anti-VEGF H0L0 (murine Fv); murine A4.6.1 Fv) VH: EIQLVQSGPELKQPGETVRISCKASGYTFTNYGMNWVKQAPGKGLKWMGWINTYTGEPTYAADFKRRFTFSLETSASTAYLQISNLKNDDTATYFCAKYPHYYGSSHWYFDVWGAGTTVTVSS VL: DIQMTQTTSSLSASLGDRVIISCSASQDISNYLNWYQQKPDGTVKVLIYFTSSLHSGVPSRFSGSGSGTDYSLTISNLEPEDIATYYCQQYSTVPWTFGGGTKLEIK",,,,,Kd (VEGF): 1.4 nM; koff (VEGF): 0.00017 s⁻¹; kon (VEGF): 134000 M⁻¹ s⁻¹
"Anti-TNFα H1.101L1.33 (Fab, V domains shown, Fab format) VH: EVQLVESGGGLVQPGGSLKLSCAASGFIFSNHWMNWVRQASGKGLEWVGEIRSKAINYATHYAESVKGRFTISRDDSKSTAYLQMNSLKTEDTAVYYCSRNYYGSTYDYWGQGTLVTVSS VL: EIVLTQSPDFQSVTPKEKVTITCRASQFIGSSLHWYQQKPDQSPKLLIKYASESFSGVPSRFSGSGSGTDFTLTINSLEAEDAATYYCQQSHSWPFTFGSGTKLEIK",3.9,0.000874,223000,≤ 3,
"Anti-TNFα H1.45L1.33 (Fab, V domains shown, Fab format) VH: EVQLVESGGGLVQPGGSLKLSCAASGFIFSNHWMNWVRQASGKGLEWVGEIRSKAINYATHYAESVKGRFTISRDDSKSIVYLQMNSLKTEDTAVYYCSRNYYGSTYDYWGQGTLVTVSS VL: EIVLTQSPDFQSVTPKEKVTITCRASQFIGSSLHWYQQKPDQSPKLLIKYASESFSGVPSRFSGSGSGTDFTLTINSLEAEDAATYYCQQSHSWPFTFGSGTKLEIK",1.8,0.00087,489000,≤ 3,
"Anti-TNFα H1.67L1.33 (Fab, V domains shown, Fab format) VH: EVQLVESGGGLVQPGGSLKLSCAASGFTFSNHWMNWVRQASGKGLEWVGEIRSKAISYATHYAASVKGRFTISRDDSKNTAYLQMNSLKTEDTAVYYCSRNYYGSTYDYWGQGTLVTVSS VL: EIVLTQSPDFQSVTPKEKVTITCRASQFIGSSLHWYQQKPDQSPKLLIKYASESFSGVPSRFSGSGSGTDFTLTINSLEAEDAATYYCQQSHSWPFTFGSGTKLEIK",3.8,0.000776,200000,≤ 3,
"anti-CD25 H1.12L1.20 (antibody, V domains shown, IgG1 format; It has twenty-two mutations against anti-CD25 H1L1; copies: 2 + 2) VH: not shown VL: EIVLTQSPATLSLSPGERATLSCRASQSVSYLHWYQQKPGQAPRLLIYTTSNRATGIPARFSGSGSGTDFTLTISSLEPEDFAVYYCHQRSTYPLTFGSGTKLEIK",,,,,Kd [4]: 0.17 nM; koff [4]: 0.00013 s⁻¹; kon [4]: 750000 M⁻¹ s⁻¹; IC50 (read off the curve) [5]: ~40 nM; fold tighter binding than anti-CD25 H0L0 [6]: ~1.5 fold
"anti-CD25 H1.12L1.48 (antibody, IgG1, V domains shown, IgG1 format) VH: not shown VL: EIVLTQSPATLSLSPGERATLSCRASQSVSYMHWYQQKPGQAPRLLIYTTSNRATGIPARFSGSGSGTDFTLTISSLEPEDFAVYYCHQRSTYPLTFGSGTKLEIK",,,,,Fold change in Kd vs. H0L0 [4]: 1.7 fold; Kd [4]: 0.15 nM; koff [4]: 0.00012 s⁻¹; kon [4]: 800000 M⁻¹ s⁻¹; fold tighter binding than anti-CD25 H1L1 [6]: 5.9 fold

# From US20100004431A1 (Xencor, published 2010)
